Experimental data as given in patent US20250302986A1, “NOVEL PEPTIDE, USGAES THEREOF AND PHARMACEUTICAL COMPOSITION HAVING THE SAME” (Taipei Medical University, priority 2024, published 2025).

Experiments:
[1] = biological target: T1, mouse CD80 recombinant protein (Mus musculus, UniProt Q00609); test: Phage display screening and enzyme-linked immunosorbent assay screening for CD80 binding; details: peptide derived from ELISA-positive phage colonies
T1 construct: Fc (Fc chimera); His-tag; purchased R&D Systems 740-B1
Protocol: In ‘Phage Display Screening”, biopanning is applied via phage display technology. First, the G protein magnetic beads (product name: Dynabeads™ Protein G; manufacturer: Invitrogen) are added to mix with the phage peptide library (product name: PhD-12 Phage Display Peptide Library; manufacturer: New England Biolabs), thus the mixture is incubated for 1 hour at 4° C. ambient conditions. Then, a magnet is used to remove the G protein magnetic beads to exclude phages bound to the G protein magnetic beads in the phage peptide library, thereby obtaining a purified phage peptide library. Continuously, the bait carrier is added to the purified phage peptide library and incubated overnight at 4° C. ambient conditions. The bait carrier is magnetic beads immobilized with mouse CD80 recombinant protein (product name: Recombinant Mouse B7-1/CD80 Fc Chimera His-tag Protein, CF; manufacturer: R&D Systems; catalog number: 740-B1). Therefore, the phages in the purified phage peptide library that bind to the mouse CD80 recombinant protein will be bound to the bait carrier, and then the bait carrier will be separated using the magnet. Then the bait carrier is rinsed with cleaning solution to eliminate phages with weak binding force. The cleaning solution is phosphate buffered saline (PBS) containing 0.1% (v/v) polysorbate-20 (Tween 20). […]

[2] = biological target: T2, Recombinant Mouse B7-1/CD80 Fc Chimera His-tag Protein, CF (R&D Systems, catalog number 740-B1) (mouse, UniProt Q00609 38-245); test: phage ELISA on plate-coated mouse CD80 recombinant protein, anti-M13 HRP, absorbance at 450 nm
T2 construct: Bought reagent; everywhere else it is mouse; also called mouse CD80 recombinant protein; bait; Fc part of the bought chimera not given; His-tag
T2 sequence (looked up): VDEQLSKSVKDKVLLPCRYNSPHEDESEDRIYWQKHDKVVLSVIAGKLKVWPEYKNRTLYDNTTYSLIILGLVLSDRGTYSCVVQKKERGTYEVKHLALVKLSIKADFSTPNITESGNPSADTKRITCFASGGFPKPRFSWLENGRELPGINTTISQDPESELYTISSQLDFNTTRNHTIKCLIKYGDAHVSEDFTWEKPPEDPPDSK
Excerpt: The PEG8000/NaCl contains 20% (v/v) PEG8000 (product name: Poly (ethylene glycol); manufacturer: Sigma-Aldrich; Cat. No.: P5413-1KG) and 2.5M NaCl (product name: Sodium chloride; manufacturer: Honeywell fluka; Cat. No.: 31434S-1KG). The above steps are repeated for five rounds in total. In the fourth and fifth rounds, phage clones will be randomly selected for culture, and used in the subsequent enzyme-linked immunosorbent assay (ELISA) to screen out desired phages.
In the “Enzyme Combined Immunosorbent Assay Screening”, the mouse CD80 recombinant protein is first fixed in the wells of a microplate (product name: Clear C-Shaped Immuno Nonsterile 96-Well Plates; manufacturer: Thermo Fisher Scientific; Cat. No.: 446612), and then the phage clones randomly selected in the fourth and fifth rounds of the “Phage Display Screening” are mixed with the diluent at a volume ratio of 1:2 to obtain a phage dilution, which is a phosphate buffered saline comprising 3% (v/v) bovine serum albumin (BSA) and 0.1% (v/v) polysorbate-20. […] Constantly, a microplate reader is adopted to measure the absorbance at 450 nm to confirm whether the phages in each grid of the microplate are still bound to the mouse CD80 recombinant protein in the microplate. […]

T1 sequence (Q00609 with tags, fused parts or gaps limits assumed): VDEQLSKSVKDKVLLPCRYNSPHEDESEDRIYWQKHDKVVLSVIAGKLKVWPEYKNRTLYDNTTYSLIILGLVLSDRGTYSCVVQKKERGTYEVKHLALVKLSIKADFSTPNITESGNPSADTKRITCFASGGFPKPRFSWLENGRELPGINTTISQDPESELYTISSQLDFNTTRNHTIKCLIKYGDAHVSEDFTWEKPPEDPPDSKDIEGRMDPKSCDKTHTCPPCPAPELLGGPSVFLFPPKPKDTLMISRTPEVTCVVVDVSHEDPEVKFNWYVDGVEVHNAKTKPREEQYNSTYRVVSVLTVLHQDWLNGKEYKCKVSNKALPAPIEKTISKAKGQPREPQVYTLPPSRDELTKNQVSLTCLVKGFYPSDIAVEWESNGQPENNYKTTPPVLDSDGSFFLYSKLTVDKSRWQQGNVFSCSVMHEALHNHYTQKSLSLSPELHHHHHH

In the case of “VLMGDPSVWWTY [first peptide, peptide from phage display screening against mouse CD80 recombinant protein]”, the “binding to CD80 protein” value [1] is reported as “can indeed bind to the CD80 protein”.

B1: first peptide (VLMGDPSVWWTY) (peptide)
peptide: VLMGDPSVWWTY
notes: In the ELISA screening the peptide stood on an M13 phage clone from the PhD-12 Phage Display Peptide Library (New England Biolabs); also called novel peptide
B1: binds [2].

B2: second peptide (YLIYEEEPLNSM) (peptide)
peptide: YLIYEEEPLNSM
notes: In the ELISA screening the peptide stood on an M13 phage clone from the PhD-12 Phage Display Peptide Library
B2: binds [2].
